Patent US20240400614A1, “CLEAVABLE PEPTIDES AND METHODS OF USE THEREOF” (Bright Peak Therapeutics AG, priority 2023, published 2024)
Square brackets hold non-standard residues; d marks the D form. Ends that are not written are not given here. Tyr(3-NO2) = N[C@@H](Cc1ccc(O)c([N+](=O)[O-])c1)C(=O)O; Nle = CCCC[C@H](N)C(=O)O; 2Abz = Nc1ccccc1C(=O)O

How the values were obtained:
Assay type in all cases: biochemical
[1] = biological target: uPA (Homo sapiens, UniProt P00749); experiment: FRET peptide cleavage efficiency with uPA
[2] = biological target: T1, matriptase (Homo sapiens, UniProt Q9Y5Y6); experiment: FRET peptide cleavage efficiency with matriptase
T1 construct: purchased R&D Systems 3946-SEB
T1 sequence (Q9Y5Y6 615-855 limits assumed): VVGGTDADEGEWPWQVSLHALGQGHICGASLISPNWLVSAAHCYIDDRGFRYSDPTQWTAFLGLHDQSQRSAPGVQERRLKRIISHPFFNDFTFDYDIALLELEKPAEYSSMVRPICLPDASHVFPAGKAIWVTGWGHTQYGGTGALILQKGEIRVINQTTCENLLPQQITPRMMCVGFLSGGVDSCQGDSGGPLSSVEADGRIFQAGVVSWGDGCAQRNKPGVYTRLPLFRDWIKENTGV

[3] = biological target: T2, MMP-2 (Homo sapiens, UniProt P08253); experiment: FRET peptide cleavage efficiency with MMP-2
T2 construct: purchased SIGMA PF023
T2 sequence (P08253 110-660): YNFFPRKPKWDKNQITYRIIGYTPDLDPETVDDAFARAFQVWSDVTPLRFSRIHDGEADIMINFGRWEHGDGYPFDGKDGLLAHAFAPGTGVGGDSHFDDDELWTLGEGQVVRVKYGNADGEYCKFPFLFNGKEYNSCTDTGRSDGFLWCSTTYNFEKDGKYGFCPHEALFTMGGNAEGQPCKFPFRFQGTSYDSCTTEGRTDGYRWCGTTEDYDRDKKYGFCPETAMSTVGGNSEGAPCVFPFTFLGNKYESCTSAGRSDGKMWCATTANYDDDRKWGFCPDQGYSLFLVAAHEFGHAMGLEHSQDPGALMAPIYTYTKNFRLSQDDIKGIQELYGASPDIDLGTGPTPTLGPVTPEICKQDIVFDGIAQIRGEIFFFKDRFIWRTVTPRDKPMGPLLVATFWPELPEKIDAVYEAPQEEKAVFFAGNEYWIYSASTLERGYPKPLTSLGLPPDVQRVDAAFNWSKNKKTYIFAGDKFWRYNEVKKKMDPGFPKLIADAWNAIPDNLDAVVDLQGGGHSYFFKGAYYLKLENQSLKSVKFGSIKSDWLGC

[4] = biological target: T3, MMP-7 (Homo sapiens, UniProt P09237); experiment: FRET peptide cleavage efficiency with MMP-7 (standard pH 7.5; also pH 6.5)
T3 construct: purchased SIGMA CC1059
T3 sequence (P09237 95-267): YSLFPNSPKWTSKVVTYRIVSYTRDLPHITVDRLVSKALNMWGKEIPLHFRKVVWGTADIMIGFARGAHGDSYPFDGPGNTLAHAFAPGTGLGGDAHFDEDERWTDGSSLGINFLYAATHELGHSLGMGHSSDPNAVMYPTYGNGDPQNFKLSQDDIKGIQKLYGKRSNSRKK

[5] = biological target: T4, MMP-9 (Homo sapiens, UniProt P14780); experiment: FRET peptide cleavage efficiency with MMP-9 (standard pH 7.5; also pH 6.5)
T4 construct: purchased SIGMA PF024
T4 sequence (P14780 94-707): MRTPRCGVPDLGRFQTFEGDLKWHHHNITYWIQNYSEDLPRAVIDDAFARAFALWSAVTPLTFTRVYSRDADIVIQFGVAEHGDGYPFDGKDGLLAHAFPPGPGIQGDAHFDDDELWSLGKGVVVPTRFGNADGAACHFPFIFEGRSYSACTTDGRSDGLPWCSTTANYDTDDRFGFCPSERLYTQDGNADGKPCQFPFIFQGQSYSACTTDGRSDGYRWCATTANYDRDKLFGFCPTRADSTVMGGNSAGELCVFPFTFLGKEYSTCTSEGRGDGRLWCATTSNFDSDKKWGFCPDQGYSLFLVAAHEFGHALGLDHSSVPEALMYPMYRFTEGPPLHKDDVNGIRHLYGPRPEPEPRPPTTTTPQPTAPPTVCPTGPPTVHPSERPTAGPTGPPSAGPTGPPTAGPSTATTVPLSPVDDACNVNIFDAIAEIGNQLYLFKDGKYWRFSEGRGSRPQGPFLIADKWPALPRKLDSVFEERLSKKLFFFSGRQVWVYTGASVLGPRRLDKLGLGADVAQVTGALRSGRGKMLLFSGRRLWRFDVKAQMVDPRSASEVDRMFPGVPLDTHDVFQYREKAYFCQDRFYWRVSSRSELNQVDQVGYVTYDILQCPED

[6] = t = 15 min, standard conditions (Table 8)
[7] = t = 60 min, standard conditions (Table 8)
[8] = t = 120 min, standard conditions (Table 8)
[9] = 200 uM linker, 1 ug/ml protease, 37° C., buffer A pH 8.5
[10] = 200 uM linker, 1 ug/ml protease, 37° C., buffer B pH 9.0

Row | Substance | % vcleavage uPA t = 15 min [1, 6] | % cleavage uPA t = 60 min ([1]; standard conditions (Table 8)) | % cleavage uPA t = 120 min ([1]; standard conditions (Table 8)) | % cleavage Matriptase t = 15 min ([2]; standard conditions (Table 8)) | % cleavage Matriptase t = 60 min ([2]; standard conditions (Table 8)) | % cleavage Matriptase t = 120 min ([2]; standard conditions (Table 8)) | % cleavage MMP-2 t = 15 min ([3]; t = 15 min (Table 9)) | % cleavage MMP-2 t = 60 min ([3]; t = 60 min (Table 9)) | % cleavage MMP-2 t = 60 min [3, 7] | % cleavage MMP-2 t = 120 min ([3]; t = 120 min (Table 9)) | % cleavage MMP-2 t = 120 min [3, 8] | % cleavage MMP-7 t = 15 min ([4]; t = 15 min (Table 9)) | % cleavage MMP-7 t = 15 min [4, 6] | % cleavage MMP-7 t = 60 min ([4]; t = 60 min (Table 9)) | % cleavage MMP-7 t = 60 min [4, 7] | % cleavage MMP-7 t = 120 min ([4]; t = 120 min (Table 9)) | % cleavage MMP-7 t = 120 min [4, 8] | % cleavage MMP-9 t = 15 min ([5]; t = 15 min (Table 9)) | % cleavage MMP-9 t = 60 min ([5]; t = 60 min (Table 9)) | % cleavage MMP-9 t = 120 min ([5]; t = 120 min (Table 9)) | also measured
1 | RGRKSQPLVD ([2Abz]RGRKSQPLVD[Tyr(3-NO2)]-NH2) [LNK041] | 0% | 0% | 0% | 100% | 100% | 100% | 0% | 0% | 0% | 0% | 0% | 1% | 1% | 4% | 4% | 9% | 9% | 0% | 1% | 1% | % cleavage MMP-9 t = 15 min [5, 6]: 0%; % cleavage MMP-9 t = 60 min [5, 7]: 1%; % cleavage MMP-9 t = 120 min [5, 8]: 1%
2 | RGRKSPYMLQG ([2Abz]RGRKSPYMLQG[Tyr(3-NO2)]-NH2) [LNK037] | 0% | 0% | 0% | 90% | 100% | 100% | 28% | 70% | 70% | 89% | 89% | 19% | 19% | 63% | 63% | 88% | 88% | 46% | 100% | 100% | % cleavage MMP-9 t = 15 min [5, 6]: 46%; % cleavage MMP-9 t = 60 min [5, 7]: 100%; % cleavage MMP-9 t = 120 min [5, 8]: 100%
3 | RGRKSPY-Nle-LQG ([2Abz]RGRKSPY[Nle]LQG[Tyr(3-NO2)]-NH2) [LNK038] | 0% | 0% | 0% | 100% | 100% | 100% | 19% | 55% | 55% | 76% | 76% | 22% | 22% | 69% | 69% | 92% | 92% | 23% | 71% | 97% | % cleavage MMP-9 t = 15 min [5, 6]: 23%; % cleavage MMP-9 t = 60 min [5, 7]: 71%; % cleavage MMP-9 t = 120 min [5, 8]: 97%
4 | SGRVANPLGGSG ([2Abz]SGRVANPLGGSG[Tyr(3-NO2)]-NH2) [LNK053] |  |  |  |  |  |  | 2% | 5% |  | 8% |  | 0% |  | 0% |  | 0% |  | 1% | 3% | 4% | % cleavage uPA t = 15 min ([1]; t = 15 min, 200 uM linker, 1 ug/ml protease, 37° C., buffer A pH 8.5): 1%; % cleavage uPA t = 60 min [1, 9]: 5%; % cleavage uPA t = 120 min [1, 9]: 12%; % cleavage Matriptase t = 15 min [2, 10]: 3%; % cleavage Matriptase t = 60 min [2, 10]: 11%; % cleavage Matriptase t = 120 min [2, 10]: 20%; % cleavage MMP-2 t = 15 min ([3]; t = 15 min, 200 uM linker, 1 ug/ml protease, 37° C., buffer C pH 7.5): 2%; % cleavage MMP-2 t = 60 min ([3]; t = 60 min, 200 uM linker, 1 ug/ml protease, 37° C., buffer C pH 7.5): 5%; % cleavage MMP-2 t = 120 min ([3]; t = 120 min, 200 uM linker, 1 ug/ml protease, 37° C., buffer C pH 7.5): 8%
